Experimental findings from patent US20170189513A1 are described below.

The target of the assay is HLA-A*24 (human). Kind of assay: UV-ligand exchange, b2m ELISA. Background: In an ELISA, binding on a coated surface is turned into a signal by an enzyme label.

PYRLIFEKF [… (SEQ ID No 281)] showed a peptide exchange yield of 20 to 49%.
AYVVFVSTL [… (SEQ ID No 207)] showed a peptide exchange yield of 20 to 49%.
Regarding HYPPVQVLF [… (SEQ ID No 285)], the peptide exchange yield lay in the range of 50 to 75%.
As to VYVGGGQIIHL [… (SEQ ID No 174)], the peptide exchange yield fell in the range of 50 to 75%.
Then YYEVHKELF [… (SEQ ID No 175)], with more than 75%.
Then YYKSTSSAF [… (SEQ ID No 218)], with 50 to 75%; and EYNQWFTKL [… (SEQ ID No 176)], with 50 to 75%; and TFSVSSHLF [… (SEQ ID No 222)], with 50 to 75%.
Molecule RYAEEVGIF [… (SEQ ID No 199)] returned a peptide exchange yield of 50 to 75%.
Take LYIDRPLPYL [… (SEQ ID No 196)]: the peptide exchange yield lay in the range of 50 to 75%.
Regarding TYKDEGNDYF [… (SEQ ID No 209)], the peptide exchange yield was 50 to 75%.
Then VYWDSAGAAHF [… (SEQ ID No 202)], with more than 75%.
In the case of EYSLFPGQVVI [… (SEQ ID No 197)], the peptide exchange yield was in the range of 50 to 75%.
On to IYATEAHVF [… (SEQ ID No 201)], for which the peptide exchange yield fell in the range of 50 to 75%.
With TYSVSFPMF [… (SEQ ID No 195)], the peptide exchange yield is more than 75%.
Then NYYEVHKELF [… (SEQ ID No 270)], with 50 to 75%; and VYQGHTALL [… (SEQ ID No 277)], with more than 75%; and TYELRYFQI [… (SEQ ID No 204)], with more than 75%.
Then LYITEPKTI [… (SEQ ID No 287)], with 50 to 75%; and YFIDSTNLKTHF [… (SEQ ID No 269)], with 50 to 75%; and YYGPSLFLL [… (SEQ ID No 200)], with 50 to 75%.
Then QYLGQIQHI [… (SEQ ID No 268)], with 50 to 75%.
